Positions count from the first letter of the chain named. Names and notes keep the numbering of the source.
B1: IL-12(E59A/F60A)/CD155-Fc (IL-12 at hinge) (Fc fusion)
chain 1: WPPPGTGDVVVQAPTQVPGFLGDSVTLPCYLQVPNMEVTHVSQLTWARHGESGSMAVFHQTQGPSYSESKRLEFVAARLGAELRNASLRMFGLRVEDEGNYTCLFVTFPQGSRSVDIWLRVLAKPQNTAEVQKVQLTGEPVPMARCVSTGGRPPAQITWHSDLGGMPNTSQVPGFLSGTVTVTSLWILVPSSQVDGKNVTCKVEHESFEKPQLLTVNLTVYYPPEVSISGYDNNWYLGQNEATLTCDARSNPEPTGYNWSTTMGPLPPFAVAQGAQLLIRPVDKPINTTLICNVTNALGARQAELTVQVKEGPPSEHSGISRNGGGGSGGGIWELKKDVYVVELDWYPDAPGEMVVLTCDTPEEDGITWTLDQSSEVLGSGKTLTIQVKAAGDAGQYTCHKGGEVLSHSLLLLHKKEDGIWSTDILKDQKEPKNKTFLRCEAKNYSGRFTCWWLTTISTDLTFSVKSSRGSSDPQGVTCGAATLSAERVRGDNKEYEYSVECQEDSACPAAEESLPIEVMVDAVHKLKYENYTSSFFIRDIIKPDPPKNLQLKPLKNSRQVEVSWEYPDTWSTPHSYFSLTFCVQVQGKSKREKKDRVFTDKTSATVICRKNASISVRAQDRYYSSSWSEWASVPCSGGGGSGGGSGGGGSRNLPVATPDPGMFPCLHHSQNLLRAVSNMLQKARQTLEFYPCTSEEIDHEDITKDKTSTVEACLPLELTKNESCLNSRETSFITNGSCLASRKTSFMMALCLSSIYEDLKMYQVEFKTMNAKLLMDPKRQIFLDQNMLAVIDELMQALNFNSETVPQKSSLEEPDFYKTKIKLCILLHAFRIRAVTIDRVMSYLNASGGGGSGGGDKTHTCPPCPAPEDEGGPSVFLFPPKPKDTLMISRTPEVTCVVVDVSHEDPEVKFNWYVDGVEVHNAKTKPREEQYNSTYRVVSVLTVLHQDWLNGKEYKCKVSNKALPAPIEKTISKAKGQPREPQVYVYPPSREEMTKNQVSLTCLVKGFYPSDIAVEWESNGQPENNYKTTPPVLDEDGSFALVSKLTVDKSRWQQGNVFSCSVMHEALHNHYTQKSLSLSPGK
chain 2: WPPPGTGDVVVQAPTQVPGFLGDSVTLPCYLQVPNMEVTHVSQLTWARHGESGSMAVFHQTQGPSYSESKRLEFVAARLGAELRNASLRMFGLRVEDEGNYTCLFVTFPQGSRSVDIWLRVLAKPQNTAEVQKVQLTGEPVPMARCVSTGGRPPAQITWHSDLGGMPNTSQVPGFLSGTVTVTSLWILVPSSQVDGKNVTCKVEHESFEKPQLLTVNLTVYYPPEVSISGYDNNWYLGQNEATLTCDARSNPEPTGYNWSTTMGPLPPFAVAQGAQLLIRPVDKPINTTLICNVTNALGARQAELTVQVKEGPPSEHSGISRNGGGGSGGGDKTHTCPPCPAPEKKGGPSVFLFPPKPKDTLMISRTPEVTCVVVDVSHEDPEVKFNWYVDGVEVHNAKTKPREEQYNSTYRVVSVLTVLHQDWLNGKEYKCKVSNKALPAPIEKTISKAKGQPREPQVYVLPPSREEMTKNQVSLLCLVKGFYPSDIAVEWESNGQPENRYMTWPPVLDSDGSFFLYSKLTVDKSRWQQGNVFSCSVMHEALHNHYTQKSLSLSPGK
B2: CD155-Fc (control) (Fc fusion)
chain 1: B1 chain 2 with K345D, K346E, L462Y, L477T, R501N, M503K, W505T, S511E, F516A, Y518V
chain 2: B1 chain 2
B3: IL-12(E59A/F60A)/IL-2(R38D/K43E/E61R/Q126T)/CD155-Fc (Fc fusion)
chain 1: B1 chain 1
chain 2: WPPPGTGDVVVQAPTQVPGFLGDSVTLPCYLQVPNMEVTHVSQLTWARHGESGSMAVFHQTQGPSYSESKRLEFVAARLGAELRNASLRMFGLRVEDEGNYTCLFVTFPQGSRSVDIWLRVLAKPQNTAEVQKVQLTGEPVPMARCVSTGGRPPAQITWHSDLGGMPNTSQVPGFLSGTVTVTSLWILVPSSQVDGKNVTCKVEHESFEKPQLLTVNLTVYYPPEVSISGYDNNWYLGQNEATLTCDARSNPEPTGYNWSTTMGPLPPFAVAQGAQLLIRPVDKPINTTLICNVTNALGARQAELTVQVKEGPPSEHSGISRNGGGSGAPTSSSTKKTQLQLEHLLLDLQMILNGINNYKNPKLTDMLTFEFYMPKKATELKHLQCLERELKPLEEVLNLAQSKNFHLRPRDLISNINVIVLELKGSETTFMCEYADETATIVEFLNRWITFCTSIISTLTGGGGSGGGDKTHTCPPCPAPEKKGGPSVFLFPPKPKDTLMISRTPEVTCVVVDVSHEDPEVKFNWYVDGVEVHNAKTKPREEQYNSTYRVVSVLTVLHQDWLNGKEYKCKVSNKALPAPIEKTISKAKGQPREPQVYVLPPSREEMTKNQVSLLCLVKGFYPSDIAVEWESNGQPENRYMTWPPVLDSDGSFFLYSKLTVDKSRWQQGNVFSCSVMHEALHNHYTQKSLSLSPGK
B4: IL-12(E59A/F60A)/IL-2(L18R/Q22E/R38D/K43E/E61R)/CD155-Fc (Fc fusion)
chain 1: B1 chain 1
chain 2: B3 chain 2 with L346R, Q350E, T454Q
B5: IL-2(L18R/Q22E/R38D/K43E/E61R/Q126T/S130R)/CD155-Fc (Fc fusion)
chain 1: B1 chain 2 with K345D, K346E, L462Y, L477T, R501N, M503K, W505T, S511E, F516A, Y518V
chain 2: B3 chain 2 with L346R, Q350E, S458R
B6: IL-2(L18R/Q22E/R38D/K43E/E61R)/CD155-Fc (Fc fusion)
chain 1: B1 chain 2 with K345D, K346E, L462Y, L477T, R501N, M503K, W505T, S511E, F516A, Y518V
chain 2: B3 chain 2 with L346R, Q350E, T454Q
B7: IL-2(L18R/Q22E/R38D/K43E/E61R/Q126T)/CD155-Fc (Fc fusion)
chain 1: B1 chain 2 with K345D, K346E, L462Y, L477T, R501N, M503K, W505T, S511E, F516A, Y518V
chain 2: B3 chain 2 with L346R, Q350E
B8: IL-2(R38D/K43E/E61R/Q126T)/CD155-Fc (Fc fusion)
chain 1: B1 chain 2 with K345D, K346E, L462Y, L477T, R501N, M503K, W505T, S511E, F516A, Y518V
chain 2: B3 chain 2
B9: IL-12(E59A/F60A)/IL-2(L18R/Q22E/R38D/K43E/E61R/Q126T)/CD155-Fc (Fc fusion)
chain 1: B1 chain 1
chain 2: B3 chain 2 with L346R, Q350E

What was measured:
Test in all cases: cell-based or functional assay
[1] = target: T1, human TIGIT on HEK-Blue reporter cells (human, UniProt Q495A1 22-244)
T1 sequence (looked up): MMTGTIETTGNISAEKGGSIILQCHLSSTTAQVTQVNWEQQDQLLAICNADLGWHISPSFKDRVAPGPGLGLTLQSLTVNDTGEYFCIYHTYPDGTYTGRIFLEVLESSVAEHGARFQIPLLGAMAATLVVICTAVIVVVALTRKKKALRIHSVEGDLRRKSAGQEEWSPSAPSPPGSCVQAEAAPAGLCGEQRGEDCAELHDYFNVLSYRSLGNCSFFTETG

[2] = target: human IL-12 receptor complex (IL-12Rβ1 and IL-12Rβ2) (human, UniProt P42701 24-662; Q99665 24-862)
[3] = target: T2, human IL-2 receptor (IL-2Rα, IL-2Rβ, IL-2Rγ) (human, UniProt P01589 22-272; P14784 27-551; P31785 23-369)
T2 sequence (looked up) 1: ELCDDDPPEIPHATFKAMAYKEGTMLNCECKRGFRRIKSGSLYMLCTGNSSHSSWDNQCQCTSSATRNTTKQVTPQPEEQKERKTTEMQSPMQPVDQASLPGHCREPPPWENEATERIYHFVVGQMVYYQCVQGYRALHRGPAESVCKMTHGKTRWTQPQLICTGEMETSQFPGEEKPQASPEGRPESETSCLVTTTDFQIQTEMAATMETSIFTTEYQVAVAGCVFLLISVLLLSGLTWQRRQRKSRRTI
T2 sequence (looked up) 2: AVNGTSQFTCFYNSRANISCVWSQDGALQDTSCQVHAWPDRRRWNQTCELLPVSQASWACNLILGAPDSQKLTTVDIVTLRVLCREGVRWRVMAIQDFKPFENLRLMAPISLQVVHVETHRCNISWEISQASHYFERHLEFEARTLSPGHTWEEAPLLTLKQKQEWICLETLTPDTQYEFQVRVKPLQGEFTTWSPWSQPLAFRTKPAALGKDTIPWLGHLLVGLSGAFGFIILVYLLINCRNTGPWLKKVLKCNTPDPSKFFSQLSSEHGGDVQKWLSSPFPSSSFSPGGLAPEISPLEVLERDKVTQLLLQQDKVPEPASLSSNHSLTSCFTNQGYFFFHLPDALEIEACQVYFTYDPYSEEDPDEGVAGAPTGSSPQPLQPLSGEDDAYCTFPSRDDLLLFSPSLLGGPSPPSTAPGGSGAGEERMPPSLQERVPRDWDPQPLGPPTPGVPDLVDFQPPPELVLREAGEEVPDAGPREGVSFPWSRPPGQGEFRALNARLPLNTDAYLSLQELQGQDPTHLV
T2 sequence (looked up) 3: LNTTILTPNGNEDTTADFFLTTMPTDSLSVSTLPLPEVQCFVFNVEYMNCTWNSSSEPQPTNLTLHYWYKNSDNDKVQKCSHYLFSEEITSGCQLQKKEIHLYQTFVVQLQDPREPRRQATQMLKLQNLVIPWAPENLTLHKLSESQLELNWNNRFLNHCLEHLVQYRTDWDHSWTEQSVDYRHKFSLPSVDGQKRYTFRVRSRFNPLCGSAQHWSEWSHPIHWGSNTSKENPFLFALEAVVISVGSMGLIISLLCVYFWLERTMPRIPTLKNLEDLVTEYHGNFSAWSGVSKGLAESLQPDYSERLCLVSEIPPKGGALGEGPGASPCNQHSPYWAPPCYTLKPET

Chain of human IL-12 receptor complex (IL-12Rβ1 and IL-12Rβ2) (Q99665 24-862, chain 2 of 2, other chains not shown): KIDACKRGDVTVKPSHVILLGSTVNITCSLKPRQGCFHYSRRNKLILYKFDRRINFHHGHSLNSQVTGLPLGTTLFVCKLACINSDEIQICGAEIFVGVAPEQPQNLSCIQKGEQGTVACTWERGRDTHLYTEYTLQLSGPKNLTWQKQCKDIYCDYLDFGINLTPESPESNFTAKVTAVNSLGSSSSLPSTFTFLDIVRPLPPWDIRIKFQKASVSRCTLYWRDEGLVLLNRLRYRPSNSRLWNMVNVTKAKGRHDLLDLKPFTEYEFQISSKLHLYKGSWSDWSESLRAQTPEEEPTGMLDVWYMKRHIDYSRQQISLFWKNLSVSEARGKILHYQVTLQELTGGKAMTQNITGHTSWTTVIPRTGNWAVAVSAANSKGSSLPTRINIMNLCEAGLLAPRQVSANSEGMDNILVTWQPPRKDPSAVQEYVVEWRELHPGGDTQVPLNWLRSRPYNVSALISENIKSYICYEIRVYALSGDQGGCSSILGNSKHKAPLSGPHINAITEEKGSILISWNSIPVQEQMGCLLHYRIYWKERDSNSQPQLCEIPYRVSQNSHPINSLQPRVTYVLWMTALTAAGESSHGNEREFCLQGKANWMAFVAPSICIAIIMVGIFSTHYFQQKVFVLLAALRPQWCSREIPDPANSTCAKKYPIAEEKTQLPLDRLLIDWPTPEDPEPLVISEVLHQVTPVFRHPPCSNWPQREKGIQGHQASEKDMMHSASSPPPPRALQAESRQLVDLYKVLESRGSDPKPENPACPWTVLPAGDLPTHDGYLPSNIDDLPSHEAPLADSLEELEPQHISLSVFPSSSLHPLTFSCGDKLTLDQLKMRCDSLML

| Binder | IL-2 signal transduction, HEK-IL-2-TIGIT [1] [%] | IL-12 signal transduction, HEK-IL-12-TIGIT [1] [%] | IL-12 signal transduction, HEK-IL-12 [2] [%] | IL-2 signal transduction, HEK-IL-2 [3] [%] |
| --- | --- | --- | --- | --- |
| B1 | < 0.1 | 21 | < 0.2 | < 0.1 |
| B2 | < 0.1 | – | – | < 0.1 |
| B3 | 35 | 17 | < 0.2 | 4 |
| B4 | 78 | 21 | < 0.2 | 12 |
| B5 | < 0.1 | – | – | < 0.1 |
| B6 | 56 | – | – | 9 |
| B7 | 15 | – | – | 2 |
| B8 | 29 | – | – | 3 |
| B9 | 20 | 19 | < 0.2 | 2 |
